Test results as given in PMC3092057.

What was measured:
Assay in all cases: EMSA
TIEG1(DBD) T445A = TIEG1(DBD) T445A (Homo sapiens, UniProt Q13118 363-480, T445A)
TIEG1(DBD) S384A/T445A = TIEG1(DBD) S384A/T445A (Homo sapiens, UniProt Q13118 363-480, S384A;T445A)
TIEG1(DBD) S384A = TIEG1(DBD) S384A (Homo sapiens, UniProt Q13118 363-480, S384A)
TIEG1(DBD) T445E = TIEG1(DBD) T445E (Homo sapiens, UniProt Q13118 363-480, T445E)
TIEG1(DBD) = TIEG1(DBD) (Homo sapiens, UniProt Q13118 363-480)
TIEG1(DBD) S384E = TIEG1(DBD) S384E (Homo sapiens, UniProt Q13118 363-480, S384E)
TIEG1(DBD) S384E, sequence (Q13118 363-480 S384E): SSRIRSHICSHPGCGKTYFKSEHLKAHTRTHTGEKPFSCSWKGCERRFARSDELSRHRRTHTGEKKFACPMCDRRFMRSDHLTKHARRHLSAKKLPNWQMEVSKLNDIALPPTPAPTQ

TIEG1(DBD) S384E/T445E = TIEG1(DBD) S384E/T445E (Homo sapiens, UniProt Q13118 363-480, S384E;T445E)
TIEG1(DBD) S384E/T445E, sequence (Q13118 363-480 S384E/T445E): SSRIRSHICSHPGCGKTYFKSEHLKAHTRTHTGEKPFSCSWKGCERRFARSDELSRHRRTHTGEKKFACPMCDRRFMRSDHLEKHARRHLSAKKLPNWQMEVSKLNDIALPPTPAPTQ

TIEG1(DBD) T445E, sequence (Q13118 363-480 T445E): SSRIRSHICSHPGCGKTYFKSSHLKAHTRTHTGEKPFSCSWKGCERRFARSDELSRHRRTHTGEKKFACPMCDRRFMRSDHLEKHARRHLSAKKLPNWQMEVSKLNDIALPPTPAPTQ
TIEG1(DBD) T445A, sequence (Q13118 363-480 T445A): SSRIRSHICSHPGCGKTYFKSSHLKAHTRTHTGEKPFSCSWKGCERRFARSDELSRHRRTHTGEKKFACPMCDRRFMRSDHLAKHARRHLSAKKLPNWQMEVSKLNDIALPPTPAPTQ
TIEG1(DBD) S384A/T445A, sequence (Q13118 363-480 S384A/T445A): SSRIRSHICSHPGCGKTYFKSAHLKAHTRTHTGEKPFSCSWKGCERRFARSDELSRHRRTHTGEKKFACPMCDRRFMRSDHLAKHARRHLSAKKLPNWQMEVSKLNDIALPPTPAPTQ
TIEG1(DBD), sequence (Q13118 363-480): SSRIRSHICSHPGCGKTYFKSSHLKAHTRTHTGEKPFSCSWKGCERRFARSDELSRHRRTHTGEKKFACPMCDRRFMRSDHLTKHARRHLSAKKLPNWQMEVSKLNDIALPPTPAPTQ
TIEG1(DBD) S384A, sequence (Q13118 363-480 S384A): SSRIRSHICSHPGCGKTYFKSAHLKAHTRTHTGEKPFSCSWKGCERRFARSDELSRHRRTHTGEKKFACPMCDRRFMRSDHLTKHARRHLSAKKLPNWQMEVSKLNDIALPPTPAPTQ

B1: set I TIEG1 site (dsDNA)
DNA 1: TGCAGTGAAAAGGGGGTGTGTCAGGATGC
DNA 2: TGCATCCTGACACACCCCCTTTTCACTGC
B1: binds (TIEG1(DBD) T445A); binds (TIEG1(DBD) S384A/T445A); binds (TIEG1(DBD) S384A). B1: binds (TIEG1(DBD) T445E); binds (TIEG1(DBD)); no binding (TIEG1(DBD) S384E). B1: no binding (TIEG1(DBD) S384E/T445E).
